Results on four molecules are retold here after PMC4284093 (Journal of molecular biology, 2014).

Data set [1] has as its target DEBS3 (6-deoxyerythronolide B synthase 3; modules 5 and 6 and the TE domain) (Saccharopolyspora erythraea) (UniProt Q03133). The data set can be described thus: SEC-SAXS. A general note: In gel filtration, larger molecules generally elute earlier.
The target of data set [2] is KSAT3+KR3 (module 3 of 6-deoxyerythronolide B synthase without the ACP domain) (Saccharopolyspora erythraea). The data set can be described thus: SEC.
Data set [3] shares this target. The data set can be described thus: SEC-SAXS.
For data set [4], the target named is M3+TE (module 3 of 6-deoxyerythronolide B synthase fused to the TE domain) (Saccharopolyspora erythraea). The data set can be described thus: SEC-SAXS.
The data set “SEC-SAXS” concerns the molecule itself. The data set can be described thus: SEC-SAXS.

One may read the stoichiometry N as a count of units in the complex or per binding partner.

“DEBS3 (6-deoxyerythronolide B synthase 3; modules 5 and 6 and the TE domain), Q03133 1-3172” came in with a stoichiometry N in data set [1] of 2.
With “KSAT3+KR3 (module 3 of 6-deoxyerythronolide B synthase without the ACP domain) (domain or fragment)”, the stoichiometry N in data set [2] and in data set [3] was 2 throughout.
With “M3+TE (module 3 of 6-deoxyerythronolide B synthase fused to the TE domain) (enzyme)”, the stoichiometry N in data set [4] came out at 2.

B1: TE (terminal thioesterase domain of 6-deoxyerythronolide B synthase) (domain or fragment, Saccharopolyspora erythraea)
chain: QLDSGTPAREASSALRDGYRQAGVSGRVRSYLDLLAGLSDFREHFDGSDGFSLDLVDMADGPGEVTVICCAGTAAISGPHEFTRLAGALRGIAPVRAVPQPGYEEGEPLPSSMAAVAAVQADAVIRTQGDKPFVVAGHSAGALMAYALATELLDRGHPPRGVVLIDVYPPGHQDAMNAWLEELTATLFDRETVRMDDTRLTALGAYDRLTGQWRPRETGLPTLLVSAGEPMGPWPDDSWKPTWPFEHDTVAVPGDHFTMVQEHADAIARHIDAWLGGGNS
Consider B1, for which, in “SEC-SAXS”, the “stoichiometry N” value is 2.
